± gives the standard deviation of the averaged measurements.

These results are taken from the supplement of paper PMC10724198.

The subject of the series is Saccharomyces cerevisiae. The series is described as follows: protein stability index of tFT-peptide fusion (C-terminal peptide) (PSI (0-1 scale)); higher = more stable (slower turnover). The settings on record: temperature: 30 C. The method, then:
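MPS profiling in S. cerevisiae of the yeast C-terminome library: the last 12 aa of each annotated ORF are fused to the C-terminus of a sfGFP-mCherry timer, after a GGGS linker. Cells are FACS-sorted into 8 mCherry/sfGFP bins and deep-sequenced. PSI runs from 0 (unstable) to 1 (stable); wild type and das1Δ backgrounds, two technical replicates each.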

Setting [1] is: genetic background: das1 deletion.

As to DLSTRIYSLAYE [ELP2 C-terminal 12 aa], the protein stability index by setting is: under setting [1], 0.71 ± 0.051; (genetic background: wild type) 0.665 ± 0.011.

DLYTEEFLKEGK [PRP39 C-terminal 12 aa]: the protein stability index runs as follows: under setting [1], 0.683 ± 0.035; (genetic background: wild type) 0.6685 ± 0.0064.

With DNFNSAPSYFSK [MIG3 C-terminal 12 aa], the protein stability index is 0.6975 ± 0.0012 under setting [1] and 0.682 ± 0.052 (genetic background: wild type).

Regarding DNGRIIITGIPN [ECM5 C-terminal 12 aa], the protein stability index was 0.681 ± 0.024 under setting [1] and 0.675 ± 0.033 (genetic background: wild type).

As to DNYLKYIKALLL [MSH2 C-terminal 12 aa], the protein stability index runs as follows: under setting [1], 0.71 ± 0.029; (genetic background: wild type) 0.445 ± 0.026.

For the sequence DPERQNNSNFYN [SMC6 C-terminal 12 aa], the protein stability index by setting is: under setting [1], 0.702 ± 0.052; (genetic background: wild type) 0.686 ± 0.026.

Turning to DPFLYSCSRVAF [YDL196W C-terminal 12 aa], the protein stability index is, setting by setting: under setting [1], 0.729 ± 0.038; (genetic background: wild type) 0.702 ± 0.012.

On to DQIYWFNHFSNV [AIM2 C-terminal 12 aa], for which the protein stability index by setting is: under setting [1], 0.7141 ± 0.0021; (genetic background: wild type) 0.696 ± 0.027.

In the case of DRKRRKLLWYQA [MRPL20 C-terminal 12 aa], the protein stability index amounted to 0.718 ± 0.045 under setting [1] and 0.2489 ± 0.00046 (genetic background: wild type).

As to DSDNAAPLHDEL [KRE5 C-terminal 12 aa], the protein stability index turned out to be 0.687 ± 0.017 under setting [1] and 0.685 ± 0.048 (genetic background: wild type).

In the case of DSEDDNDTSSES [PRP38 C-terminal 12 aa], the protein stability index worked out at 0.682 ± 0.026 under setting [1] and 0.6733 ± 0.0012 (genetic background: wild type).

With DSMRGNSRNNMF [EBS1 C-terminal 12 aa], the protein stability index under setting [1] was 0.7083 ± 0.0062 and the protein stability index (genetic background: wild type) amounted to 0.717 ± 0.021.

With DSTAPKPIPGKE [YKL030W C-terminal 12 aa], the protein stability index is 0.68 ± 0.0037 under setting [1] and 0.663 ± 0.009 (genetic background: wild type).

For the sequence DTSLYRYRSYGY [PUF2 C-terminal 12 aa], the protein stability index was found to be 0.7007 ± 0.0045 under setting [1] and 0.683 ± 0.033 (genetic background: wild type).

The sequence DTSPAQEQSPAN [ARG80 C-terminal 12 aa] came in with a protein stability index under setting [1] of 0.695 ± 0.026 and a protein stability index (genetic background: wild type) of 0.709 ± 0.013.

Turning to DTTFTGCTKKIL [YGL102C C-terminal 12 aa], the protein stability index reads like this: under setting [1], 0.698 ± 0.023; (genetic background: wild type) 0.66 ± 0.019.

As to DVEVVCRQNNFV [YDR327W C-terminal 12 aa], the protein stability index is, setting by setting: under setting [1], 0.723 ± 0.0082; (genetic background: wild type) 0.724 ± 0.025.

On to DYKLLKELASQV [GLT1 C-terminal 12 aa], for which the protein stability index under setting [1] came to 0.66531 ± 0.00065 and the protein stability index (genetic background: wild type) was determined as 0.635 ± 0.054.

With DYLYAKDDLLKW [GPP1 C-terminal 12 aa], the protein stability index runs as follows: under setting [1], 0.7287 ± 0.0048; (genetic background: wild type) 0.709 ± 0.011.

Take EALVKQITSVKQ [SCC4 C-terminal 12 aa]: the protein stability index under setting [1] is 0.6973 ± 0.006 and the protein stability index (genetic background: wild type) worked out at 0.701 ± 0.015.

The sequence EDGAVGNLFDDN [MSN5 C-terminal 12 aa] yielded a protein stability index under setting [1] of 0.681 ± 0.018 and a protein stability index (genetic background: wild type) of 0.667 ± 0.033.

In the case of EDGRPPQNDFKE [TIM22 C-terminal 12 aa], the protein stability index came out at 0.699 ± 0.0092 under setting [1] and 0.734 ± 0.057 (genetic background: wild type).

As to EDHKFDLSTITV [MRPL24 C-terminal 12 aa], the protein stability index reads like this: under setting [1], 0.703 ± 0.01; (genetic background: wild type) 0.717 ± 0.023.

Sequence EDKGLLSCCTVM [YCP4 C-terminal 12 aa] gave a protein stability index under setting [1] of 0.786 ± 0.011 and a protein stability index (genetic background: wild type) of 0.743 ± 0.032.

EEADSLYISMGL [LCD1 C-terminal 12 aa] showed a protein stability index under setting [1] of 0.709 ± 0.021 and a protein stability index (genetic background: wild type) of 0.701 ± 0.012.

Sequence EEAFGKVQTKTF [SOL3 C-terminal 12 aa] yielded a protein stability index under setting [1] of 0.7098 ± 0.0052 and a protein stability index (genetic background: wild type) of 0.7564 ± 0.0044.

EEFSSGDYSMDY [RIE1 C-terminal 12 aa]: the protein stability index by setting is: under setting [1], 0.7024 ± 0.006; (genetic background: wild type) 0.66 ± 0.025.

Consider EEMIRSSSLYDE [ACA1 C-terminal 12 aa], for which the protein stability index runs as follows: under setting [1], 0.7312 ± 0.0059; (genetic background: wild type) 0.711 ± 0.029.

Consider EENENDCDSEIQ [RTS1 C-terminal 12 aa], for which the protein stability index reads like this: under setting [1], 0.7103 ± 0.0013; (genetic background: wild type) 0.696 ± 0.0094.

For the sequence EGVRNRRKALKK [ARO3 C-terminal 12 aa], the protein stability index is, setting by setting: under setting [1], 0.684 ± 0.027; (genetic background: wild type) 0.669 ± 0.022.

For EGVSIIESTFIN [YLR225C C-terminal 12 aa], the protein stability index came to 0.693 ± 0.012 under setting [1] and 0.68 ± 0.051 (genetic background: wild type).

For EHCPGVNEDDHK [CMG1 C-terminal 12 aa], the protein stability index reads like this: under setting [1], 0.703 ± 0.011; (genetic background: wild type) 0.701 ± 0.026.

As to EIKKIYQNEKKI [DPC7 C-terminal 12 aa], the protein stability index under setting [1] came out at 0.726 ± 0.044 and the protein stability index (genetic background: wild type) was 0.677 ± 0.029.

On to EILSMPDLSKYQ [SDH5 C-terminal 12 aa], for which the protein stability index reads like this: under setting [1], 0.6922 ± 0.0032; (genetic background: wild type) 0.704 ± 0.044.
